Values quoted from earlier work as cited in paper PMC5883021.

Target: F-actin (Oryctolagus cuniculus) (UniProt P68135)

Substance: TAGLN2 (from UniProt P37802)
- Kd: 7.39 µM
